# Results reported in patent US20090203610A1, “METHODS OF TREATING OBESITY OR DIABETES USING NT-4/5” (RINAT NEUROSCIENCE CORPORATION, priority 2004, published 2009).
# B1: NT-4/5: mature human neurotrophin-4/5 (SEQ ID NO:1), obtained from Genentech or produced in E. coli (protein, listed as Homo sapiens)
# chain: GVSETAPASRRGELAVCDAVSGWVTDRRTAVDLRGREVEVLGEVPAAGGSPLRQYFFETRCKADNAEEGGPGAGGGGCRGVDRRHWVSECKAKQSYVRALTADAQGRVGWRWIRIDTACVCTLLSRTGRA
# Experiments:
# db/db mice [1] = experiment: Serum nonesterified fatty acids (NEFA) in db/db mice (Example 1); type: in vivo
# Procedure: (§1) A difference was considered significant for p<0.05.
# Serum nonesterified fatty acids (NEFA) levels were determined by calorimetric method using a non esterified fatty acids kit (ref. FA 15, Randox, France).
# db/db mice [2] = experiment: Blood glucose levels in db/db mice (Example 1); type: in vivo
# Procedure: Administration of NT-4/5 and reference substances: Rosiglitazone (3 mg/kg, Sequoia Research Products Ltd., UK), a thiazolidinedione compound for the therapy of type 2 diabetes, was used in the present experiment as a reference. Phosphate buffer saline was used as vehicle in this experiment. NT-4/5 was obtained from Genentech.
# as §1
# db/db mice [3] = experiment: Total blood cholesterol levels in db/db mice (Example 1); type: in vivo
# Procedure: as §1
# The blood triglyceride level and the total blood cholesterol level were determined with a triglyceride assay kit (ref 445850, Beckman Coutler, France) and a total cholesterol kit (ref 467825, Beckman Coutler, France), respectively, using a Synchron CX4 analyzer.
# db/db mice [4] = experiment: Blood triglyceride levels in db/db mice (Example 1); type: in vivo
# Procedure: Test animals: 24 female 10-12 weeks old db/db mice (C57BL/Ks J Rj-db/db, Janvier, France), weighing in the target range of 40-50 g, were used in this study. […] Upon receipt at animal facilities, they were housed 4 per cage covered with filtered caps and at least a 5-day acclimation period was observed.
# (§2) The mice were divided into three groups of 8 mice each (groups 1-3). Each group was treated with vehicle (PBS) subcutaneously (s.c.), 3 mg/kg Rosiglitazone orally (p.o.), or 20 mg/kg NT-4/5 subcutaneously (s.c.). From day 1 to day 5 (T1-T5) and then from day 8 to day 12 (T8-T12), the mice in groups 2 and 3 were dosed once daily for 5 consecutive days, with a volume of 10 ml/kg.
# Collection of samples for analysis: One day before beginning the treatment (T0), non fasted db/db mice were weighed and blood samples were collected through the retro-orbital plexus (about 300 μL/mouse) under isoflurane anesthesia. Similarly, at day 5 (T5), day 12 (T12), day 19 (T19) and day 26 (T26), two hours after the last administration, blood samples were collected through the retro-orbital plexus under isoflurane anesthesia in non fasted mice. […] An aliquot of serum was used for measuring glucose levels, the remaining was frozen until use.
# (§3) Analysis of blood samples in db/db mice: Pre- and post dose serum levels of glucose, HbA1c, cholesterol and triglycerides, insulin, and non esterified fatty acids (NEFA), as well as aspirate amino-transferase (AST) and alanine amino-transferase activities (ALT) activities, were determined at different time points, as described further herein. At each time point and for each parameter, a mean % of the effect was calculated according to the following formula: ((T final−T initial)/T initial)*100. Statistical analysis was consistent in a one-way analysis of variance followed by multiple comparisons versus the vehicle group (Dunnett's test) on final values. In case the equal variance test fails, a Kruskall-Wallis one-way analysis of variance on ranks was conducted. A difference was considered significant for p<0.05.
# db/db mice [5] = experiment: Food intake of db/db mice (Example 1); type: in vivo; settings: for food intake, mean: NT-4/5 20 mg/kg s.c., Rosiglitazone 3 mg/kg p.o.
# Procedure: Throughout the experiment period (T1-T26), daily individual body weights as well as food intake per cage were measured.
# db/db mice [6] = experiment: Blood insulin level by ELISA in db/db mice (Example 1); type: in vivo; parameters: blood insulin level at T5 / blood insulin level at T12 / blood insulin level at T19 / blood insulin level at T26: unit not given here
# Procedure: as §1
# The blood insulin level was determined by ELISA using an Insulin ELIT Plus kit (ref. INSRAT01-8N, Eurobio, France).
# db/db mice [7] = experiment: HbA1c in db/db mice (Example 1); type: in vivo
# Procedure: as §1
# HbA1c levels were determined using an HbA1c kit (ref. 650262, Beckman Coulter, France) and a Synchron CX4 synchronizer. HbA1c is an indicator for blood glucose control over the last 2-3 months. The normal level of HbA1c in C57BL/6J mouse (determined by measuring 8 normal healthy C57BL/6J mice) was about 3.5%.
# db/db mice [8] = experiment: Serum transaminase (AST, ALT) activity in db/db mice (Example 1)
# Procedure: Test animals: 24 female 10-12 weeks old db/db mice (C57BL/Ks J Rj-db/db, Janvier, France), weighing in the target range of 40-50 g, were used in this study. These mice were housed in a temperature (19.5-24.5° C.) and relative humidity (45-65%) controlled room with a 12-hour light/dark cycle, with ad libitum access to filtered tap-water and irradiated pelleted laboratory chow (SAFE, France) throughout the study. Upon receipt at animal facilities, they were housed 4 per cage covered with filtered caps and at least a 5-day acclimation period was observed.
# as §2
# Collection of samples for analysis: One day before beginning the treatment (T0), non fasted db/db mice were weighed and blood samples were collected through the retro-orbital plexus (about 300 μL/mouse) under isoflurane anesthesia. Similarly, at day 5 (T5), day 12 (T12), day 19 (T19) and day 26 (T26), two hours after the last administration, blood samples were collected through the retro-orbital plexus under isoflurane anesthesia in non fasted mice.
# as §3
# Aspartate amino-transferase (AST) and alanine amino-transferase (ALT) activities were determined with an AST kit (ref. 442665, Beckman Coulter, France), an ALT kit (ref. 442620, Beckman Coulter, France), using a Synchron CX4 analyzer.
# [9] = day 0, before treatment, NT-4/5 20 mg/kg s.c., Rosiglitazone 3 mg/kg p.o.
# [10] = day 5, NT-4/5 20 mg/kg s.c., Rosiglitazone 3 mg/kg p.o.
# [11] = day 5 vs day 0, NT-4/5 20 mg/kg s.c., Rosiglitazone 3 mg/kg p.o.
# [12] = day 12, NT-4/5 20 mg/kg s.c., Rosiglitazone 3 mg/kg p.o.
# [13] = day 12 vs day 0, NT-4/5 20 mg/kg s.c., Rosiglitazone 3 mg/kg p.o.
# [14] = day 19, NT-4/5 20 mg/kg s.c., Rosiglitazone 3 mg/kg p.o.
# [15] = day 19 vs day 0, NT-4/5 20 mg/kg s.c., Rosiglitazone 3 mg/kg p.o.
# [16] = day 26, NT-4/5 20 mg/kg s.c., Rosiglitazone 3 mg/kg p.o.
# [17] = day 26 vs day 0, NT-4/5 20 mg/kg s.c., Rosiglitazone 3 mg/kg p.o.
molecule,measurement,setting,value
B1,effect on blood level of NEFA,db/db mice [1]; 20 mg/kg s.c.,did not seem to have affected the blood level of NEFA significantly
same,NEFA levels T0,db/db mice [1]; [9],0.788 mM
same,NEFA levels T5,db/db mice [1]; [10],0.780 mM
same,NEFA % effect T5-T0,db/db mice [1]; [11],−0.1%
same,NEFA levels T12,db/db mice [1]; [12],0.679 mM
same,NEFA % effect T12-T0,db/db mice [1]; [13],−8.5%
same,NEFA levels T19,db/db mice [1]; [14],0.521 mM
same,NEFA % effect T19-T0,db/db mice [1]; [15],−30.4%
same,NEFA levels T26,db/db mice [1]; [16],0.411 mM
same,NEFA % effect T26-T0,db/db mice [1]; [17],−44.5%
same,blood glucose levels T0,db/db mice [2]; [9],36.95 mM
same,blood glucose levels T5,db/db mice [2]; [10],15.78 mM
same,blood glucose % effect T5-T0,db/db mice [2]; [11],−56.4%
same,blood glucose levels T12,db/db mice [2]; [12],13.56 mM
same,blood glucose % effect T12-T0,db/db mice [2]; [13],−62.6%
same,blood glucose levels T19,"db/db mice [2]; day 19 (dosing stopped day 12), NT-4/5 20 mg/kg s.c., Rosiglitazone 3 mg/kg p.o.",12.65 mM
same,blood glucose % effect T19-T0,db/db mice [2]; [15],−65.2%
same,blood glucose levels T26,"db/db mice [2]; day 26 (dosing stopped day 12), NT-4/5 20 mg/kg s.c., Rosiglitazone 3 mg/kg p.o.",22.50 mM
same,blood glucose % effect T26-T0,db/db mice [2]; [17],−37.9%
same,level of blood glucose lower than that of vehicle treated mice,"db/db mice [2]; throughout the rest of the study, 20 mg/kg s.c.",at least 50%
same,blood cholesterol level decrease,"db/db mice [3]; 20 mg/kg s.c., not statistically significant",20-30%
same,cholesterol levels T0,db/db mice [3]; [9],3.42 mM
same,cholesterol levels T5,db/db mice [3]; [10],2.85 mM
same,cholesterol % effect T5-T0,db/db mice [3]; [11],−16.4%
same,cholesterol levels T12,db/db mice [3]; [12],2.66 mM
same,cholesterol % effect T12-T0,db/db mice [3]; [13],−23.7%
same,cholesterol levels T19,db/db mice [3]; [14],2.40 mM
same,cholesterol % effect T19-T0,db/db mice [3]; [15],−31.7%
same,cholesterol levels T26,db/db mice [3]; [16],2.67 mM
same,cholesterol % effect T26-T0,db/db mice [3]; [17],−23.5%
same,triglycerides levels T0,db/db mice [4]; [9],1.51 mM
same,triglycerides levels T5,db/db mice [4]; [10],0.73 mM
same,triglycerides % effect T5-T0,db/db mice [4]; [11],−48.8%
same,triglycerides levels T12,db/db mice [4]; [12],0.84 mM
same,triglycerides % effect T12-T0,db/db mice [4]; [13],−40.9%
same,triglycerides levels T19,db/db mice [4]; [14],1.07 mM
same,triglycerides % effect T19-T0,db/db mice [4]; [15],−28.0%
same,triglycerides levels T26,db/db mice [4]; [16],1.13 mM
same,triglycerides % effect T26-T0,db/db mice [4]; [17],−25.2%
same,blood triglyceride levels relative to normal level,db/db mice [4]; normal level 1.2±0.08 mM in C57BL/6J mice,reduced to below normal level
same,food intakes,db/db mice [5]; 20 mg/kg s.c.,dramatically suppressed
same,"food intake, mean",db/db mice [5]; Day 1,104.1 g/kg/day
same,"food intake, mean",db/db mice [5]; Day 2,56.9 g/kg/day
same,"food intake, mean",db/db mice [5]; Day 3,90.7 g/kg/day
same,"food intake, mean",db/db mice [5]; Day 4,68.6 g/kg/day
same,"food intake, mean",db/db mice [5]; Day 5,44.1 g/kg/day
same,"food intake, mean",db/db mice [5]; Day 6,38.5 g/kg/day
same,"food intake, mean",db/db mice [5]; Day 7,43.1 g/kg/day
same,"food intake, mean",db/db mice [5]; Day 8,63.4 g/kg/day
same,"food intake, mean",db/db mice [5]; Day 9,45.6 g/kg/day
same,"food intake, mean",db/db mice [5]; Day 10,51.8 g/kg/day
same,"food intake, mean",db/db mice [5]; Day 11,56.2 g/kg/day
same,"food intake, mean",db/db mice [5]; Day 12,62.6 g/kg/day
same,"food intake, mean",db/db mice [5]; Day 13,42.3 g/kg/day
same,"food intake, mean",db/db mice [5]; Day 14,76.3 g/kg/day
same,"food intake, mean",db/db mice [5]; Day 15,69.9 g/kg/day
same,"food intake, mean",db/db mice [5]; Day 19,78.0 g/kg/day
same,"food intake, mean",db/db mice [5]; Day 20,79.1 g/kg/day
same,"food intake, mean",db/db mice [5]; Day 21,123.9 g/kg/day
same,"food intake, mean",db/db mice [5]; Day 22,114.4 g/kg/day
same,"food intake, mean",db/db mice [5]; Day 25,120.6 g/kg/day
same,"food intake, mean",db/db mice [5]; Day 26,116.3 g/kg/day
same,blood insulin level at T5,db/db mice [6]; T5,1.84
same,blood insulin level at T12,db/db mice [6]; T12,0.91
same,blood insulin level at T19,db/db mice [6]; T19,7.6
same,blood insulin level at T26,db/db mice [6]; T26,11.58
same,insulin levels T0,db/db mice [6]; [9],7.04 nM
same,insulin levels T5,db/db mice [6]; [10],1.84 nM
same,insulin % effect T5-T0,db/db mice [6]; [11],−72.0%
same,insulin levels T12,db/db mice [6]; [12],0.91 nM
same,insulin % effect T12-T0,db/db mice [6]; [13],−84.5%
same,insulin levels T19,db/db mice [6]; [14],7.60 nM
same,insulin % effect T19-T0,db/db mice [6]; [15],17.1%
same,insulin levels T26,db/db mice [6]; [16],11.58 nM
same,insulin % effect T26-T0,db/db mice [6]; [17],73.1%
same,insulin level relative to normal level,db/db mice [6]; normal about 0.118±0.010 nM,not reduced to normal level
same,HbA1c level decrease at T26,db/db mice [7]; T26 as compared to T0,30.4%
same,HbA1c T0,db/db mice [7]; [9],5.81%
same,HbA1c T12,db/db mice [7]; [12],5.82%
same,HbA1c % effect T12-T0,db/db mice [7]; [13],−0.2%
same,HbA1c T26,db/db mice [7]; [16],4.08%
same,HbA1c % effect T26-T0,db/db mice [7]; [17],−30.4%
same,"effect on AST and/or ALT levels, or AST/ALT ratios",db/db mice [8]; 20 mg/kg s.c.,did not have significant effect
same,ALT/AST ratio T0,db/db mice [8]; [9],1.17
same,ALT/AST ratio T5,db/db mice [8]; [10],0.73
same,ALT/AST ratio % effect T5-T0,db/db mice [8]; [11],−32.7%
same,ALT/AST ratio T12,db/db mice [8]; [12],0.87
same,ALT/AST ratio % effect T12-T0,db/db mice [8]; [13],−26.6%
same,ALT/AST ratio T19,db/db mice [8]; [14],0.67
same,ALT/AST ratio % effect T19-T0,db/db mice [8]; [15],−45.6%
same,ALT/AST ratio T26,db/db mice [8]; [16],0.99
same,ALT/AST ratio % effect T26-T0,db/db mice [8]; [17],−17.6%
